Experimental data published in the DeepSol protein solubility set.

Assay: soluble on expression in E. coli; label from the status in PepcDB or PDB records

Soluble on expression in E. coli, soluble:
MSLSNLTIDVQTVTQKGKKPYIEYQINRPSFHNFSDSKFQNKLNFYYKKSTDKFKTRLEKDAKKYYKETEGSSTPFHPYVANVDYKVSLNKPPLLSLYLNYYQYTGGAHGMYTWKANTFDLKEKKLLHLDDLFQQEDKYKEVIRAEIVRKIKQNEGIYFPDATEKVMSTKKFHFFLEPNNLVIYFPLYEIAPYSSGIPQFRIPYTLLREYLKPSYQNILIDNKEGHHHHHH, SAPVEHVVADAGAFLRHAALQDIGKNIYTIREVVTEIRDKATRRRLAVLPYELRFKEPLPEYVRLVTEFSKKTGDYPSLSATDIQVLALTYQLEAEFVGVSHLKQEPQKVKVSSSIQHPETPLHISGFHLPYKPKPPQETEKGHSACEPENLEFSSFMFWRNPLPNIDHELQELLIDRGEDVPSEEEEEEENGFEDRKDDSDDDGGGWITPSNIKQIQQELEQCDVPEDVRVGCLTTDFAMQNVLLQMGLHVLAVNGMLIREARSYILRCHGCFKTTSDMSRVFCSHCGNKTLKKVSVTVSDDGTLHMHFSRNPKVLNPRGLRYSLPTPKGGKYAINPHLTEDQRFPQLRLSQKARQKTNVFAPDYIAGVSPFVENDISSRSATLQVRDSTLGAGRRRLNPNASRKKFVKKR, GPGSMSATDASITGAEAAPASPGTSPAATGPASTAAVTAYTVGIDIGSATTRVAVMDPAKLMPTIIRNALGNEATSTVVSFAANEARSFGENAAARQVTKASETIVDLAPWIFGYTSGEQVPKDTAVSLQVVSPATAMTEACVLKSRQLGAQEHLTHPAQVAAFYIKSLLQLLPEKGMIRTSPVCLAVPSAAYAASFEALRQATLLAGVPQEQTIIAHSDEATAVYFHHLQYSGLPAKHDGAAVPVVLIDIGQSCSVASLIMASQPRVEKVDCQTLRMGSEYIDALLCSHVYSELGKKFGAAADPLRGDIKSFRKILRECRKAKEVLSTTDETQVQLEGLSGDIDIIVSVTRAMMEQAALPFLQAVRAMLTAIKEKLPVPSATEDGSQAAAVPPRVEVIGGGWRSVCVMEAIREVFGITRVGVSLDANLSVAEGSAILAEVRQLTIARQQDEEQTAQATTASSVAEAHQVELIGFEVLDANSPINRPLSEAGVRAVTEWIMLEKQMEDSDARIHERLAALNRLDSYILQTLAAVDNCAASSEKKTEMRAYIEEVDAYVRSEGDEASSVELNEKLAAVQAHVTEHFSEIEAYYESVRAEEKRKEEELVKLSKERQEDESDLKSDPQRLRMAQKRREQGQGLFREECWAEAQTRFVQALSILGQLYDTSSEENKTKKREISLSCYLNIASCSVKLGLWKNAVNNCTNALELVPDHPKALFRRGQAYSALKEYEEAVTDLEKAKAVSQDDPVVVAELNKAKAALGAEKAKTKKMFAKMFS, MPTPAYMRIEGEKQGLITAGTFTEDSVGNIYQEGHEDEVLVQGFEHQVLLPRDPQSGQPTGQRVHKPVRITKVFDKASPLMYNALTSGEKLPKVEIKWYRTSATGTQEHYFTTVLHDAIIVDITASMPNCQDPSQAHFTHLEDVFMTYRAIDWTHEVAGTSGNDDWRTAMKA, SGSEPTKVMVAVNASTIKDYPNPSISCKRAFEWTLEKIVRSNTSDFKILLLHVQVVDEDGFDDVDSIYASPEDFRDMRQSNKAKGLHLLEFFVNKCHEIGVGCEAWIKTGDPKDVICQEVKRVRPDFLVVGSRGLGRFQKVFVGTVSAFCVKHAECPVMTIKRNADETPSDPADD

Soluble on expression in E. coli, not soluble:
MGHHHHHHSHMATASPSVFLLMVNGQVESAQFPEYDDLYCKYCFVYGQDWAPTAGLEEGISQITSKSQDVRQALVWNFPIDVTFKSTNPYGWPQIVLSVYGPDVFGNDVVRGYGAVHVPFSPGRHKRTIPMFVPESTSKLQKFTSLCLVASSDLQAAPPTEDK, MGSDKIHHHHHHLGRRGTADDEILLTYCPTLFIVGAEGRRFNNEAITELRTSMISPSGLVVVGHSNDMILVPTSMLLRLGISQTVVFRMVLEKILDFLNLEPVRQQEFADLVPIELNNVFDLDSALLKSDKALSGLAFASSTHSASSSAAPSPVGASGRRATVTGAGSEDIAKRRKESIILSQQIAAPSISGPPPPAPSPRTEDRFLAFQNLVASTITTGDDMPRRASMGASPRVIERGDFRDHRPPPPPPLPILQNPVATPMSQQPPLPSPAPPPPRGPVDPASISLI, MFDDLHEYLDFLARKNDLITVNDQVDPDLELTYILSEEERIGRGRTIQFNRVKGSEVPAVGNLFSTYEKMKTVLGDDPYQIGRRIVEIAQPPGDSESFIGKGIEMMRELGGLRPKIAGSLPSNYDELDRVDLFRYPICKTWPQDGGKFITLPLVITKDPETGTRNMGMYRMQVYDSETTGMHWHIHKGGSENFQKEAQKHEVMDVAVVIGSDPLTIFSAVAPLPNGIDEFMFRGLVSKKRFDLVKGKTVNLEYPRNFEIVLEGYIDPAETRIEGPFGDHTGYYSLEEQFPVFHIKKIIERRDRIYPTTIVGKLWHEDVIMGKTIERMFLPLIQMVMPEVVDINTMEEAVFHNMVIVSIKKRYPGHAKKVMFGLWGMGQMMFSKIIVVVDDDINVHNRKEVIWAMTTRIDPDRDVIIIPGTVTDSLDHASPIFNYGSKMGIDATKKRPDEGYQRRWPDVLEMPEDVTNRVRDLMKKNGMTQLEHHHHHH, VGQMVAVNGYKISVFVKGQGSQTLVFLSGAGTASPILDFKDVYDGFSKEYKIVVVERADYGYSEDTSKSRDVSVILSETRQSLAKSQVSGPYIILSHSMASLETLLWQENYPSEVKAVVCLDWAFPESYFQLKRHPQMLRLARWESQLGLLRLLPRQLYMPNENLSDSDRRLYQEIAYRQLLSQAMLNESLCAKENDKKVNSTSIKSQMPVLLMVSNGKGTGFGQEQWRHYATSFAKGQKNMEVTYYDSPHYFYHYQTKEMIRSIEEFVQETTD, MAHHHHHHMFSEPVYLTIGDEYEKRAVKPSKSRGRNFIVPVKRSPHITDAVFQKSFISLAVGDEYLPPPPGGTFRQPAEKKPGEPQPLPFKPPSRPHKSCGSGSYYGTFNEKNPPKHEPETTIAEVKKSGANAPAGTVRKPNLYTNPGKKGTYGYTGLTLGRAGEVQYISDPVGCCSGQRTHSPRTQAPFSAAVKCGGCFDEGPHGFSTVYGMNKPLPMRKVPPQRVLPPMKPWRPAGALVREITRHPEYQEDPYDLKEKRLREERLKEQSHKPWFPCGTDAYRHIYTYPVPYNPPPVV, MSLTFLTGVPGFLGTRLLRRLAAAAPDRSFLLLVQPKFEGRTHTLLADRGLADRATVLPGDITEPDLGLGAHYDAVAEQITRAVHLAAVYDLTIPREVGWQVNVEGTRHVLDLLAQCPSLERFGYVSSAYVSGERTGTIHEDELVHEAGFKNFYEETKYHAEVLVQDRMDEIPTLVFRPSIVVGDSETGATDKFDGVYFVLNALRSLPRYTPMTRIGSGTEPVNLVPVDFVVDAMGHLLGTEGHAGTVFHLTDPRPLTAQAIMELLADLLDKRVAYVPVPPGLARAMMKTGVGRALGLAPELIDYFDHPSHYDASNTRAALDGTGIDCPFLPDYAPAMVAYARRHDARSSAMYEGHHHHHH, MSDVDVFVIDDDFDPLADLSLDDGERDDAEADYLPPIPDADKSVVPPVVPLSATERIEKLLAGIPGQQFRLLHAVEFCTEPKTMDEAVADLDAAYPNTTSVYGSAQVVQLLERDGALERIVDEDAAHAAAGDAADTPAEDEGFISVTPAPPCRYRATQAGLDAVAAHVNEGLVAERISEDERYLPIFQRVLEMCAREGGCPTKELDQAVDGDPLCQEPRRFCGFFRGKLEETGAIEWRDAWTITDLGRSVLASGLFAAASPSER, MSLSIYQASIPTFLRTLGNLSAILKKAAAHAEAKNIDPRIFIDARLAPDMFPLARQVQIASDAAKGAGARLAGLEVPSYADTETTFDELQARIARTVEFLEGIREEQLDGAEERNVTLKVRGQEISFNGRDFLFGFALPNFFFHVTTAYAILRHNGVELGKMDFLGGA, MYSSNYIYQHDDLELHGFLAHEEGIKQSRPAVIVAHDWSGRGEFACLKAKQLAEMGYIGFALDMYGQGQIGSNNDEKMALMQPLYSDRSLLRGRLYAALEAIKSISVVDNNRIAIIGFCFGGLCALDLARSGADIRGAVSFHGLLNKPENLASGRIKAKILALHGYDDPMAKPEQVHAFCQEMTEANVDWQMHMYGQVKHAFTNPQAHDEHLGLIYDEVAARRSWQAMSQFLQEIFN
